Assay results taken from publication PMC9945959.

Target: Full-length human NF1 isoform 2 (short isoform), recombinant (human) (UniProt P21359)
Assay: cryo-EM structure

stoichiometry N: 2
Substance: Full-length human NF1 isoform 2 (short isoform), recombinant, P21359-2 1-2818
